{
  "source": "patent US20100167270",
  "key": {"[1]": {"system": "hMPV F protein of rhMPV/NL/1/00/101P (RQPR cleavage motif)"}, "[2]": {"system": "hMPV F protein of rhMPV/NL/1/00/101S (RQSR cleavage motif)"}, "[3]": {"system": "hMPV F protein of rhMPV/NL/1/99/101S (subtype B1)"}},
  "data": [
    {"substance": "TPCK trypsin (Sigma)", "values": [
      {"measurement": "cleavage of vectored hMPV F (b/h PIV3), Western blot", "setting": "[1]", "result": "In the presence of trypsin, the vectored F proteins of both hMPV/NL/1/00/101P and hMPV/NL/1/00/101S were partially cleaved to the same extent as the F protein expressed from the wt hMPV/NL/1/00"},
      {"measurement": "cleavage of hMPV F (F0 to F1), Western blot", "setting": "[2]", "result": "hMPV F containing 101S was cleaved only when the protein was exposed to trypsin"},
      {"measurement": "cleavage of vectored hMPV F (b/h PIV3), Western blot", "setting": "[2]", "result": "In the presence of trypsin, the vectored F proteins of both hMPV/NL/1/00/101P and hMPV/NL/1/00/101S were partially cleaved to the same extent as the F protein expressed from the wt hMPV/NL/1/00"},
      {"measurement": "cleavage of hMPV F (F0 to F1), Western blot", "setting": "[3]", "result": "hMPV F/101S showed no cleavage in the absence of trypsin, but in the presence of trypsin, the F1 fragment was readily detected"}
    ]}
  ]
}
